# The nanobody polyreactivity screen of Harvey et al. (2022)
# Assay: yeast display, Sf9 membrane polyspecificity reagent, FACS + sequencing; frameworks hold sequencing errors
# Procedure, shortened: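 Sorting gates, low and high (top ~1%), were placed on anti-HA fluorescence to track expression and on streptavidin fluorescence to track reagent binding. A clone's polyreactivity label is taken from the gate it came out of. The reagent was 10% biotinylated, detergent-solubilized Sf9 membrane, applied for 1 hour at 4 °C to galactose-induced yeast display cells.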
row,Sequence,polyreactivity (PSR sort gate)
1,QVQLVESGGGLVQAGGSLRLSCAASGSTFSWYAMGWYRQAPGKERELVAAITRSGGRTYYADSVKGRFTISRDNAKNTVYLQMNSLKPEDTAVYYCAAVQYKSPHNYWGQGTQVTVSS,high polyreactivity
2,QVQLVESGGGLVQAGGSLRLSCAASGSTFSYNAMGWYRQAPGKERELVAAISGSGGTTYYADSVKGRFTISRDNAKNTVYLQMNSLKPEDTAVYYCAARPFRSWRYDYWGQGTQVTVSS,low polyreactivity
3,QVQLVESGGGLVQAGGSLRLSCAASGSTFSYNAMGWYRQAPGKERELVAAISRGDVSTYYADSVKGRFTISRDNAKNTVYLQMNSLKPEDSAVYYWAAYWYGSQYKWRYDYWGQGTQGTVSS,low polyreactivity
4,QVQLVESGGGLVQAGGSLRLSCAASGSTFSYNAMGWYRQAPGKERELVAAISWSGGSTYYADSVKGRFTISRDNAKNTVYLQMNSLKPEDTAVYYCASDSPYGYYEGDYWGQGTQVTVSS,low polyreactivity
5,QVQLVESGGGLVQAGGSLRLSCAASGSTFSYNAMGWYRQAPGKERELVAAITSRGGSTRYADSVKGRFTISRDNAKNTVYLQMNSLKPEDTAVYYCARPYSYYPYSTVNYWGQGTQVTVSS,high polyreactivity
6,QVQLVESGGGLVQAGGSLRLSCAASGSTFSYNAMGWYRQAPGKERELVAGITGRGGSTYYADSEKGRFTISRDNAKNTVYLQMYSLKPEDTAVYYCAADARSYGYPDDFWGQGTQVTVSS,high polyreactivity
7,QVQLVESGGGLVQAGGSLRLSCAASGSTFSYNAMGWYRQAPGKERELVATISNTDSTNYADSVKGRFTISRDNAKNTVYLQMNSLKPEVTAVYYCAVVSARIDYEYWGQGTQVTVSS,low polyreactivity
8,QVQLVESGGGLVQAGGSLRLSCAASGSTFSYNAMVWYRQAPRKERELVAAISRRGDNTYYADSVKGRFTISRDNAKNTVYLQMYSLKPEDTAVYYCAAVGYFVKQYAPRYGYWGHGTQVTVSS,low polyreactivity
9,QVQLVESGGGLVQAGGSLRLSCAASGSTFSYNDMGWYRQAPGKERELVAAISSGGSTKYADSVKGRFTISRDNAKNTVYLQMNSLKPEDTAVYYCNVDVKGRPTFWSPFGRFDYWGQGTQVTVSS,high polyreactivity
10,QVQLVESGGGLVQAGGSLRLSCAASGSTFSYNTMGWYRQAPGKERELVATISSSSGSTTYADSVKGRFTISRDIAKNTVYLQINSLKPEDTAVYYCNVDDPFYSGVVEFDYWGQGTQVTVSS,low polyreactivity
11,QVQLVESGGGLVQAGGSLRLSCAASGSTFSYYAIGWYRQAPGKERELVAAISRRGGSTYYADSVKGRFTISRDNAKNTVYLQMNRLKPEDTAVYYCAADYYFSSRIEYYYWGQGTQVTVSS,high polyreactivity
12,QVQLVESGGGLVQAGGSLRLSCAASGSTFSYYAMGWYRKAPGKERELVAAITIGGRTNYADSVKGRFTISRDNAKNTVYFQMNSLKPEDTAVYYCAASRVRSLRSYVWDLLLMDSWGQGTQVTVSS,high polyreactivity
13,QVQLVESGGGLVQAGGSLRLSCAASGSTFSYYAMGWYRQAPGKERELVAAITRGGSTYYADSVKGRFTISRDNAKNTVYLQMNSLKPEDTAVYYWAGQLLRYRYYYWGQGTQVNVSS,high polyreactivity
14,QVQLVESGGGLVQAGGSLRLSCAASGSTFSYYTMGWYRQSPGKERELVAVISTSGGNTYYADSVKGRFTISRDNAKNTVYLQMNSLKPEDTAVYYCAAAYPRVTYKNGYYWGQGTQVTVSS,high polyreactivity
15,QVQLVESGGGLVQAGGSLRLSCAASGSTFTANAMGWYRQAPGKERELVAAITNSDGSTYYADSVKGRFTISRDNAKNTVYLQMNSLKPEDTAVYYCAAPADSGITQVWQALSDYWGQGTQVTVSS,low polyreactivity
16,QVQLVESGGGLVQAGGSLRLSCAASGSTFTANAMGWYRQAPWKERELVAAITNSDGSTYYADSVKGRFTISRDNAKNTVYLQMNSLKPEDTAVYYCAKDYYACYWEMDYWGQGTQVTVSS,low polyreactivity
17,QVQLVESGGGLVQAGGSLRLSCAASGSTFTAYAMGWYRQAPGKERELVADISDSGGSTYYADSVKGRFTISRDNAKNTVYLQMNSLKPEDTAVYYCAVDVRAYVVSKFDSWGQGTQVTVSS,low polyreactivity
18,QVQLVESGGGLVQAGGSLRLSCAASGSTFTAYAMGWYRQAPGKERELVADISKRSGGTYYADSVKGRFTISRDNAKNTVYLQMNSLKPEDTAVYYCGQGTQVTVSS,low polyreactivity
19,QVQLVESGGGLVQAGGSLRLSCAASGSTFTAYAMGWYRQAPGKERQLVAAISKRSGVTYYADSVKGRFTISRDNAKNTVYLQINSLKPEDTAVYYCGQGTQVTVSS,low polyreactivity
20,QVQLVESGGGLVQAGGSLRLSCAASGSTFTDNGMVWYRQAPGKARELVAGISYSGGSTYYADSVKGRFRISRDNAKNTVYLQMNSLKPEDTAVYYCAADRGGYYLSEYDYWGQVTQVTVSS,low polyreactivity
21,QVQLVESGGGLVQAGGSLRLSCAASGSTFTENTMGWYRQAPGKERELVAAITDSGGSTYYADSVKGRFTISRDNAKNTVYLQMNSLKPEDTAVYYCAADVQPDTRSTPEMDYWGQGTQVTVSS,low polyreactivity
22,QVQLVESGGGLVQAGGSLRLSCAASGSTFTFNAMAWYRQAPGKEREFVAAITASGGRTYYADSVKGRFTISRDNAKNTVYLQMNSLKPEDTAVYYCNASQWPSRFDYWGQGTQVTVSS,low polyreactivity
23,QVQLVESGGGLVQAGGSLRLSCAASGSTFTFNAMGWYRKAPGKERELVAAISGSDVTTYYADSVKGRFTISRDNAKNSVYLQMNSLKPEDTAVYYCAAESYVTTVTGPHTGDYWGQGTQVTVSS,low polyreactivity
24,QVQLVESGGGLVQAGGSLRLSCAASGSTFTFNAMGWYRQAPGKERELVAAIRWSTGGTYYADSVKGRFTISRDNAKNTVYLQMNSLKPEDTAVYYCAAQFVPYFYFSKYDYWGQGTQVTVSS,low polyreactivity
25,QVQLVESGGGLVQAGGSLRLSCAASGSTFTFYAMGWYRQAPGKERELVAAISGRGGSTYYADSVKGRFTISRDNAMNTVYLQMNSLKPEDTAVYYCAAGWSRVWRRDFGYWGQGTQVTVSS,low polyreactivity
26,QVQLVESGGGLVQAGGSLRLSCAASGSTFTFYAMGWYRQAPGKERELVASITQSTGSTHYADSVKGRFTISRDNAKNTVYLQMNSLKPEDTSVYYCNAQKIVYYWVTLFPYYYWGQGTQVTVSS,low polyreactivity
27,QVQLVESGGGLVQAGGSLRLSCAASGSTFTGNAMGWYSQAPGKERELVAAISRSGGRTYYADSVKGRFTISRDNAKNTVYLQMNSLKPEDTAVYYCNAVRNRGQRTAFDYWGQGTQVTVSS,high polyreactivity
28,QVQLVESGGGLVQAGGSLRLSCAASGSTFTGNSMGWYRQAPGKERELVAAISSSGASTYYADSVKGPFTISRDNAKNTVYLQMNSLKPEDTAVYYCAAELFYYPTPFREYDYWGQGTQVTVSS,low polyreactivity
29,QVQLVESGGGLVQAGGSLRLSCAASGSTFTGYAMGWYRPAPGKERELVAGITGSGGSTYYADSVKGRFTISRDNAKNTVYLQMNSLKPEDTAVYYCAAELYDYGDLYYSEYDYWGQGTQVTVSS,low polyreactivity
30,QVQLVESGGGLVQAGGSLRLSCAASGSTFTGYAMGWYRQAPGKERELVAAISISGGRTFYADSVKGRFTISRDNAKNTVYLQMNSLKPEDTAVYYCAAYLRGSKYSFDYWGQGTQVTVSS,high polyreactivity
